According to patent US6514734:

How the values were obtained:
glucose oxidase [1] = assay: polyester discs with IgG polymer, illuminated, washed; glucose oxidase at 0.1 mg/ml 1 h, washed; bound glucose oxidase read with glucose/HRP/TMB; n=5, SEM 0.059
glucose oxidase [2] = assay: glucose oxidase capture on discs with IgG polymer, illuminated against nonilluminated
glucose oxidase [3] = assay: polyester discs with IgG polymer, not illuminated, washed; glucose oxidase at 0.1 mg/ml 1 h, washed; bound glucose oxidase read with glucose/HRP/TMB; n=5, SEM 0.021
[4] = tested on: hirudin polymer (photoreactive polyacrylamide containing hirudin ligands)
[5] = biological target: tritium labeled human thrombin (human) (UniProt P00734); assay: 3H-thrombin at 2 µg/ml, 1 h, on PU coated with photoimmobilized hirudin polymer (25 µg/cm^2 added); scintillation counting
[6] = biological target: tritium labeled human thrombin (human) (UniProt P00734); assay: 3H-thrombin binding, PU coated with 25 µg/cm^2 hirudin polymer against uncoated PU
bovine thrombin (bovine) = bovine thrombin (bovine) (UniProt P00735); assay: cell-based or functional assay
[7] = biological target: tritium labeled human thrombin (human) (UniProt P00734); assay: 3H-thrombin at 2 µg/ml, 1 h, on SR coated with photoimmobilized hirudin polymer (1.0 µg/cm^2 added); scintillation counting
[8] = biological target: tritium labeled human thrombin (human) (UniProt P00734); assay: 3H-thrombin at 2 µg/ml, 1 h, on PE coated with photoimmobilized hirudin polymer (5.0 µg/cm^2 added); scintillation counting
[9] = biological target: tritium labeled human thrombin (human) (UniProt P00734); assay: 3H-thrombin at 2 µg/ml, 1 h, on PU coated with photoimmobilized hirudin polymer (1.0 µg/cm^2 added); scintillation counting
[10] = biological target: tritium labeled human thrombin (human) (UniProt P00734); assay: 3H-thrombin at 2 µg/ml, 1 h, on PE coated with photoimmobilized hirudin polymer (1.0 µg/cm^2 added); scintillation counting
[11] = biological target: tritium labeled human thrombin (human) (UniProt P00734); assay: 3H-thrombin at 2 µg/ml, 1 h, on PE coated with photoimmobilized hirudin polymer (25 µg/cm^2 added); scintillation counting
[12] = biological target: tritium labeled human thrombin (human) (UniProt P00734); assay: 3H-thrombin at 2 µg/ml, 1 h, on PU coated with photoimmobilized hirudin polymer (5.0 µg/cm^2 added); scintillation counting
[13] = biological target: tritium labeled human thrombin (human) (UniProt P00734); assay: 3H-thrombin binding, PE coated with 25 µg/cm^2 hirudin polymer against uncoated PE
[14] = biological target: tritium labeled human thrombin (human) (UniProt P00734); assay: 3H-thrombin at 2 µg/ml, 1 h, on SR coated with photoimmobilized hirudin polymer (5.0 µg/cm^2 added); scintillation counting
[15] = biological target: biotin derivatized horseradish peroxidase (horseradish) (UniProt P00433); assay: biotin-HRP bound to glass rods, adsorbed against photoimmobilized streptavidin polymer
biotin derivatized horseradish peroxidase (horseradish), sequence (P00433 31-338): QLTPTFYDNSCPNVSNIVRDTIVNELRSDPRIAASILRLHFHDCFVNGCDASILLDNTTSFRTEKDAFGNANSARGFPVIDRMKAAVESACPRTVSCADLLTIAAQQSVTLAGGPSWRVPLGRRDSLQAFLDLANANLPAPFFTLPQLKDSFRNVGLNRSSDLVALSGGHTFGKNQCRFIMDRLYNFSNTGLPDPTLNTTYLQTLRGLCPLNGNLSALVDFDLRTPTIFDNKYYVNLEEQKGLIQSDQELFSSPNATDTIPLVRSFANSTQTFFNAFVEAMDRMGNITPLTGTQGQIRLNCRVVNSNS

[16] = biological target: biotin derivatized horseradish peroxidase (horseradish) (UniProt P00433); assay: glass rods with photoimmobilized streptavidin polymer, biotin-HRP at 9 µg/ml 1 h, washed, TMB peroxidase substrate; average of 3
[17] = biological target: biotin derivatized horseradish peroxidase (horseradish) (UniProt P00433); assay: glass rods with adsorbed (nonilluminated) streptavidin polymer, biotin-HRP at 9 µg/ml 1 h, washed, TMB peroxidase substrate; average of 3

## IgG polymer (photoreactive polyacrylamide containing tritiated rabbit anti-glucose oxidase IgG ligands) (antibody)
Glucose oxidase [1]
  IgG Activity (A655): 1.08 A655
Glucose oxidase [2]
  percent greater activity, illuminated against nonilluminated: 61%
Glucose oxidase [3]
  IgG Activity (A655): 0.669 A655

## bovine thrombin
[4]
  decrease in antithrombin activity after incorporation of hirudin into the polymer: only a 13% decrease in its activity

## hirudin polymer (photoreactive polyacrylamide containing hirudin ligands)
[5]
  Bound thrombin: 0.28 µg/cm^2
[6]
  fold greater thrombin binding than uncoated biomaterial: 23 fold
Bovine thrombin (bovine)
  specific activity (antithrombin units per mg of hirudin); remaining thrombin activity on chromogenic substrate Chromozym TH: 10200 ATU/mg
[7]
  Bound thrombin: 0.004 µg/cm^2
[8]
  Bound thrombin: 0.014 µg/cm^2
[9]
  Bound thrombin: 0.028 µg/cm^2
[10]
  Bound thrombin: 0.02 µg/cm^2
[11]
  Bound thrombin: 0.2 µg/cm^2
[12]
  Bound thrombin: 0.137 µg/cm^2
[13]
  fold greater thrombin binding than uncoated biomaterial: 200 fold
[14]
  Bound thrombin: 0.047 µg/cm^2

## recombinant hirudin
Bovine thrombin (bovine)
  specific activity (antithrombin units per mg of hirudin); remaining thrombin activity on chromogenic substrate Chromozym TH: 11700 ATU/mg

## streptavidin polymer (photoreactive polyacrylamide containing streptavidin ligands) (from UniProt P22629 37-163)
[15]
  fold less peroxidase activity than covalent streptavidin polymer: 3.5 fold
[16]
  Absorbance of Biotin-HRP: 1 absorbance
[17]
  Absorbance of Biotin-HRP: 0.285 absorbance
